These results are taken from patent publication US20140335539A1.

The target of one experiment is p62(PB1)-p53. In words: cell-based or functional assay.
The target of the next experiment is p62(PB1)-FKBP12. In words: cell-based or functional assay.

In turn, AG-MDM2 came in with an IC50 of Nutlin-3, total luminance of fluorescent foci per cell (stable CHO-K1 line) in the experiment with p62(PB1)-p53 of 8.9 µM. Turning to mTOR(FRB)-AG, the IC50 of FK506 in the presence of 20 nM rapamycin, total fluorescence intensity of fluorescent foci per cell (stable HeLaS3 line) with p62(PB1)-FKBP12 was 0.68 µM.
